From PMC3788760

How the values were obtained:
[1] = target: human PDI fragment abb’xa’ (human); experiment: ITC; 25.0°C; VP-ITC; 200 µM Tau244–372 (or 40 µM full-length Tau) in the syringe injected into 8.1 µM PDI or fragment (or 3.24 µM PDI) in the cell; 10 mM HEPES pH 7.4, 100 mM NaCl, no DTT; single set of identical sites model
[2] = target: a-domain of human PDI (human); experiment: as above
[3] = target: full-length human protein disulfide isomerase (PDI) (human) (UniProt P07237); experiment: as above
[4] = target: human PDI fragment abb’xa’ (human)
[5] = target: a-domain of human PDI (human)
[6] = target: full-length human protein disulfide isomerase (PDI) (human) (UniProt P07237)
[7] = target: a-domain of human PDI (human); experiment: ITC; 37.0°C; VP-ITC; 200 µM Tau244–372 in the syringe injected into 8.1 µM full-length PDI or domain a in the cell; 10 mM HEPES pH 7.4, 100 mM NaCl, no DTT; single set of identical sites model
[8] = target: full-length human protein disulfide isomerase (PDI) (human) (UniProt P07237); experiment: as above

human Tau fragment Tau244–372, sequence (P10636 561-689): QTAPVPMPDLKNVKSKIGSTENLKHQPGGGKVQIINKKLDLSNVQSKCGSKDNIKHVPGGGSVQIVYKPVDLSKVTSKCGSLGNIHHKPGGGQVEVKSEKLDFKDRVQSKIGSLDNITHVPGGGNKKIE

Substance: human Tau fragment Tau244–372 (from UniProt P10636-8 244-372) (domain or fragment)
- Kd [1]: 7.35 µM
- dH [1]: -5.9 kcal/mol
- stoichiometry N [1]: 0.97
- Kd [2]: 0.48 µM
- dH [2]: -4 kcal/mol
- stoichiometry N [2]: 0.489
- Kd [3]: 3.46 µM
- dH [3]: -8.6 kcal/mol
- stoichiometry N [3]: 0.8
- lag time of Tau244–372 fibrillization (ThT, 37°C), 0–20 µM abb’xa’ (184 min without PDI); value at 20 µM [4]: 247 min
- rate constant k for the growth of Tau244–372 fibrils (ThT), 0–20 µM abb’xa’ (falls from 36.7 without PDI); value at 20 µM [4]: 0.0233 min⁻¹
- t m of Tau244–372 fibrillization (ThT), 0–20 µM abb’xa’ (238.3 min without PDI); value at 20 µM [4]: 333 min
- lag time of Tau244–372 fibrillization (ThT, 37°C), 0–20 µM domain a (184 min without PDI); value at 20 µM [5]: 253 min
- rate constant k for the growth of Tau244–372 fibrils (ThT), 0–20 µM domain a (falls from 36.7 without PDI); value at 20 µM [5]: 0.0176 min⁻¹
- t m of Tau244–372 fibrillization (ThT), 0–20 µM domain a (238.3 min without PDI); value at 20 µM [5]: 366 min
- lag time of Tau244–372 fibrillization (ThT) with 100 g/l Ficoll 70, 20 µM full-length PDI (∼0 without PDI) [6]: 44.8 min
- lag time of Tau244–372 fibrillization (ThT, 37°C, 10 µM Tau244–372, heparin, 1 mM DTT), 0–20 µM full-length PDI (184 min without PDI); value at 20 µM [6]: 242 min
- rate constant k for the growth of Tau244–372 fibrils (ThT) with 100 g/l Ficoll 70, 20 µM full-length PDI (54.9 without PDI) [6]: 0.0314 min⁻¹
- rate constant k for the growth of Tau244–372 fibrils (ThT), 0–20 µM full-length PDI (falls from 36.7 without PDI); value at 20 µM [6]: 0.0224 min⁻¹
- t m (time to 50% of maximal ThT fluorescence) of Tau244–372 fibrillization, 0–20 µM full-length PDI (238.3 min without PDI); value at 20 µM [6]: 331 min
- t m of Tau244–372 fibrillization (ThT) with 100 g/l Ficoll 70, 20 µM full-length PDI (11.6 min without PDI) [6]: 108 min
- Kd [7]: 1.34 µM
- dH [7]: -4.34 kcal/mol
- stoichiometry N [7]: 0.56
- Kd [8]: 4.83 µM
- dH [8]: -9.27 kcal/mol
- stoichiometry N [8]: 1.02
